B1: PKD2L1 (parent)
chain: YSGGGYYLDLPGSRQGSAEALRAL
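Note: lentivirally expressed fusions sorted by FACS into six bins by GFP to DsRed ratio, PSI derived from sequencing read proportions per bin multiplied by bin number.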

This data set covers variants of B1. Nature of the data set: protein stability index of a GFP-peptide fusion (GPS, HEK-293T) (PSI 1-6); higher = more stable. Conditions: c terminus: a fixed tail appended.
As for YSGGGYYLDLLGSRQGSAEALRAL [P11L], the protein stability index was 2.54.

As to YSGGGYYLDLWGSRQGSAEALRAL [P11W], the protein stability index stood at 2.52. For the variant YSGGGYYLDLRGSRQGSAEALRAL [P11R], the protein stability index stood at 3.15. For YSGGGYYLDLTGSRQGSAEALRAL [P11T] the value was 1.86; for YSGGGYYLDLYGSRQGSAEALRAL [P11Y], 2. Next, YSGGGYYLDLIGSRQGSAEALRAL [P11I]: 1.94.

Take YSGGGYYLDLQGSRQGSAEALRAL [P11Q]: the protein stability index came to 2.53. Consider YSGGGYYLDLNGSRQGSAEALRAL [P11N], for which the protein stability index stood at 1.97. For YSGGGYYLDLHGSRQGSAEALRAL [P11H] the value was 1.44. Consider YSGGGYYLDLKGSRQGSAEALRAL [P11K], for which the protein stability index amounted to 1.91. For YSGGGYYLDLSGSRQGSAEALRAL [P11S] the value was 1.73; for YSGGGYYLDLVGSRQGSAEALRAL [P11V], 1.85; for YSGGGYYLDLMGSRQGSAEALRAL [P11M], 2.68. Next, YSGGGYYLDLPGSRMGSAEALRAL [Q15M]: 2.81.

As for YSGGGYYLDLPGSRNGSAEALRAL [Q15N], the protein stability index was 1.94. As for YSGGGYYLDLPGSRVGSAEALRAL [Q15V], the protein stability index was 2.99. Next, YSGGGYYLDLPGSRPGSAEALRAL [Q15P]: 2.03.

Turning to YSGGGYYLDLPGSRDGSAEALRAL [Q15D], the protein stability index stood at 1.98. For YSGGGYYLDLPGSRYGSAEALRAL [Q15Y], the protein stability index stood at 2.17. Next, YSGGGYYLDLPGSRHGSAEALRAL [Q15H]: 1.28; YSGGGYYLDLPGSRKGSAEALRAL [Q15K]: 2.5. Consider YSGGGYYLDLPGSRAGSAEALRAL [Q15A], for which the protein stability index was 2.41. Regarding YSGGGYYLDLPGSRGGSAEALRAL [Q15G], the protein stability index worked out at 1.47.

With YSGGGYYLDLPGSRTGSAEALRAL [Q15T], the protein stability index worked out at 1.21. YSGGGYYLDLPGSRCGSAEALRAL [Q15C]: the protein stability index was determined as 3.34. Next, YSGGGYYLDLPGSREGSAEALRAL [Q15E]: 2.16. For YSGGGYYLDLPGSRFGSAEALRAL [Q15F] the value was 1.61; for YSGGGYYLDLPGSRLGSAEALRAL [Q15L], 1.74.

For the variant YSGGGYYLDLPGSRWGSAEALRAL [Q15W], the protein stability index is 1.73. Next, YSGGGYYLDLPGSRSGSAEALRAL [Q15S]: 1.83; YSGGGYYLDLPGSRRGSAEALRAL [Q15R]: 2.27. For YSGGGYYLDLPGSRIGSAEALRAL [Q15I] the value was 3.59. For YSGGGYYLDLPGSFQGSAEALRAL [R14F] the value was 1.32.

In the case of YSGGGYYLDLPGSYQGSAEALRAL [R14Y], the protein stability index is 2. On to YSGGGYYLDLPGSTQGSAEALRAL [R14T], for which the protein stability index turned out to be 2.15. As to YSGGGYYLDLPGSEQGSAEALRAL [R14E], the protein stability index is 1.75.

As for YSGGGYYLDLPGSKQGSAEALRAL [R14K], the protein stability index is 2.56.

In the case of YSGGGYYLDLPGSIQGSAEALRAL [R14I], the protein stability index was found to be 2.55. YSGGGYYLDLPGSLQGSAEALRAL [R14L]: the protein stability index turned out to be 2.71. For YSGGGYYLDLPGSWQGSAEALRAL [R14W] the value was 2.36; for YSGGGYYLDLPGSQQGSAEALRAL [R14Q], 1.55.

Take YSGGGYYLDLPGSAQGSAEALRAL [R14A]: the protein stability index was 3.28. For YSGGGYYLDLPGSDQGSAEALRAL [R14D] the value was 1.82; for YSGGGYYLDLPGSNQGSAEALRAL [R14N], 1.63; for YSGGGYYLDLPGSVQGSAEALRAL [R14V], 1.91.

Turning to YSGGGYYLDLPGSSQGSAEALRAL [R14S], the protein stability index amounted to 1.57. For YSGGGYYLDLPGSMQGSAEALRAL [R14M] the value was 2.08. As for YSGGGYYLDLPGSGQGSAEALRAL [R14G], the protein stability index was found to be 2.24. For YSGGGYYLDLPGSHQGSAEALRAL [R14H] the value was 1.84; for YSGGGYYLDLPGSPQGSAEALRAL [R14P], 1.37; for YSGGGYYLDLPGSCQGSAEALRAL [R14C], 1.55. For YSGGGYYLDLPGSRQASAEALRAL [G16A] the value was 1.94; for YSGGGYYLDLPGSRQESAEALRAL [G16E], 1.92. Turning to YSGGGYYLDLPGSRQCSAEALRAL [G16C], the protein stability index amounted to 1.86. YSGGGYYLDLPGSRQDSAEALRAL [G16D]: the protein stability index turned out to be 2.02. Take YSGGGYYLDLPGSRQFSAEALRAL [G16F]: the protein stability index was determined as 1.38.

As to YSGGGYYLDLPGGRQGSAEALRAL [S13G], the protein stability index was 2.58. For YSGGGYYLDLPGHRQGSAEALRAL [S13H], the protein stability index was 1.58. As for YSGGGYYLDLPGFRQGSAEALRAL [S13F], the protein stability index is 1.92.

As for YSGGGYYLDLPGARQGSAEALRAL [S13A], the protein stability index was 1.45. Next, YSGGGYYLDLPGQRQGSAEALRAL [S13Q]: 2.28; YSGGGYYLDLPGDRQGSAEALRAL [S13D]: 1.12; YSGGGYYLDLPGERQGSAEALRAL [S13E]: 1.61. Next, YSGGGYYLDLPGWRQGSAEALRAL [S13W]: 1.78; YSGGGYYLDLPGKRQGSAEALRAL [S13K]: 1.82. Next, YSGGGYYLDLPGLRQGSAEALRAL [S13L]: 1.5. Turning to YSGGGYYLDLPGTRQGSAEALRAL [S13T], the protein stability index came out at 1.82. For YSGGGYYLDLPGIRQGSAEALRAL [S13I] the value was 1.25; for YSGGGYYLDLPGNRQGSAEALRAL [S13N], 1.38.

Regarding YSGGGYYLDLPGPRQGSAEALRAL [S13P], the protein stability index was found to be 1.85. Next, YSGGGYYLDLPGVRQGSAEALRAL [S13V]: 2.3; YSGGGYYLDLPGMRQGSAEALRAL [S13M]: 2.4.

Regarding YSGGGYYLDLPGCRQGSAEALRAL [S13C], the protein stability index was 2.23. In the case of YSGGGYYLDLPGRRQGSAEALRAL [S13R], the protein stability index came out at 2.38. For YSGGGYYLDLPGYRQGSAEALRAL [S13Y] the value was 1.96; for YSGGGYYLDLPKSRQGSAEALRAL [G12K], 1.74. With YSGGGYYLDLPNSRQGSAEALRAL [G12N], the protein stability index was 2.36. Next, YSGGGYYLDLPISRQGSAEALRAL [G12I]: 1.55; YSGGGYYLDLPVSRQGSAEALRAL [G12V]: 2.22; YSGGGYYLDLPASRQGSAEALRAL [G12A]: 2.05. On to YSGGGYYLDLPYSRQGSAEALRAL [G12Y], for which the protein stability index was found to be 1.49.

For YSGGGYYLDLPRSRQGSAEALRAL [G12R], the protein stability index was found to be 1.59.

For the variant YSGGGYYLDLPLSRQGSAEALRAL [G12L], the protein stability index was determined as 2.15. For YSGGGYYLDLPFSRQGSAEALRAL [G12F] the value was 1.57; for YSGGGYYLDLPCSRQGSAEALRAL [G12C], 1.24; for YSGGGYYLDLPHSRQGSAEALRAL [G12H], 1.96.

As for YSGGGYYLDLPDSRQGSAEALRAL [G12D], the protein stability index stood at 2.09.

On to YSGGGYYLDLPWSRQGSAEALRAL [G12W], for which the protein stability index stood at 2.39. Next, YSGGGYYLDLPQSRQGSAEALRAL [G12Q]: 1.95; YSGGGYYLDLPESRQGSAEALRAL [G12E]: 2.

YSGGGYYLDLPTSRQGSAEALRAL [G12T]: the protein stability index was determined as 1.88. In the case of YSGGGYYLDLPPSRQGSAEALRAL [G12P], the protein stability index was determined as 2.05. For the variant YSGGGYYLDLPSSRQGSAEALRAL [G12S], the protein stability index is 2.21.

As for YSGGGYYLDLPMSRQGSAEALRAL [G12M], the protein stability index turned out to be 2.54.
